In publication PMC3814758, “The Geminin and Idas Coiled Coils Preferentially Form a Heterodimer That Inhibits Geminin Function in DNA Replication Licensing*” (The Journal of Biological Chemistry, 2013):
One block for each binder: values may come before it.

Assays:
Cdt1 (115-353) [1] = biological target: T1, Cdt1 (115-353) (UniProt Q9H211 115-353); experiment: ITC
T1 chain: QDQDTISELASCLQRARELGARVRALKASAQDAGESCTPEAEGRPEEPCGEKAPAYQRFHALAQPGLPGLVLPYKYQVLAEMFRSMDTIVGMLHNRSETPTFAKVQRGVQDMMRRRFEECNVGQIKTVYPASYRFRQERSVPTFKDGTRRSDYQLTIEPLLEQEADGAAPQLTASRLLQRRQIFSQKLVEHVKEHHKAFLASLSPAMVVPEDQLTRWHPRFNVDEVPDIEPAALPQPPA

Cdt1 (115-353) [2] = biological target: Cdt1 (115-353) (UniProt Q9H211)
Cdt1 (115-353) [3] = biological target: Cdt1 (115-353) (UniProt Q9H211); experiment: ITC; 25 °C; 25 mM HEPES/NaOH pH 7.5, 150 mM NaCl, 0.5 mM Tris(2-carboxyethyl)phosphine; 28 injections of 10 μl of the protein dimers (2-80 μM) into 1.4 ml of Cdt1 (0.2-10 μM)
[4] = biological target: the molecule itself; experiment: SAXS; purified complexes at three concentrations each (0.5, 1.0, 2.5 mg/ml tGeminin-tGeminin; 1.0, 2.0, 6.0 mg/ml tIdas-tIdas and tIdas-tGeminin); X13 beamline, EMBL-Hamburg; Guinier plot and distance distribution
Cdt1 (115-353) [5] = biological target: T2, Cdt1 (115-353) (UniProt Q9H211 115-353); experiment: ITC; 25 °C; 25 mM HEPES/NaOH pH 7.5, 150 mM NaCl, 0.5 mM Tris(2-carboxyethyl)phosphine; 28 injections of 10 μl of the protein dimers (2-80 μM) into 1.4 ml of Cdt1 (0.2-10 μM); details: both partners purified
T2 construct: Cdt1, residues 115-353 (methods, twice); the results print 113-353; The limits differ between the methods (115-353) and the results (113-353); also called tCdt1; truncated Cdt1; source: expressed from the pCOLDNKI-His-TF-3C-LIC-amp vector, purified
T2 sequence (looked up): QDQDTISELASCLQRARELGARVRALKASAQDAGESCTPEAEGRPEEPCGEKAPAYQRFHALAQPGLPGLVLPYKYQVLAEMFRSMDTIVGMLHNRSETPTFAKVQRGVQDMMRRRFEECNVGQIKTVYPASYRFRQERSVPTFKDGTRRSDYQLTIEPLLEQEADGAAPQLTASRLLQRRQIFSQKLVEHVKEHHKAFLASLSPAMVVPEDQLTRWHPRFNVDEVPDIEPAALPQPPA

Cdt1 (115-353) [6] = biological target: T2, Cdt1 (115-353); experiment: cell-based or functional assay

B2: tGeminin, coiled-coil domain of Geminin (residues 82-160) (domain or fragment, human, UniProt O75496 82-160, looked up)
chain: TQESFDLMIKENPSSQYWKEVAEKRRKALYEALKENEKLHKEIEQKDNEIARLKKENKELAEVAEHVQYMAELIERLNG
notes: Geminin, human, residues 82-160 (coiled-coil construct tGeminin); Single chain, used for the rows of tGeminin with itself and with tIdas; Cloned both with a cleavable His tag and without tag; In the co-expressed complex the tag was on Idas; source: expressed on its own, or co-expressed with Idas in Escherichia coli; purified
stoichiometry N [4]: 2

B4: tIdas, coiled-coil domain of Idas (residues 173-245) (domain or fragment, UniProt D6RGH6 173-245, looked up)
chain: PDVPPPEQYWKEVADQNQRALGDALVENNQLHVTLTQKQEEIASLKERNVQLKELASRTRHLASVLDKLMITQ
notes: Idas (Multicilin), residues 173-245 (coiled-coil construct tIdas); Single chain, used for the rows of tIdas with itself and with tGeminin; Cleavable His tag; also called Multicilin; source: expressed on its own, or co-expressed with Geminin in Escherichia coli; purified
stoichiometry N [4]: 2

Further lines, results first:

Kd (Cdt1 (115-353) [1]): 2.6 nM
IC50 of inhibition of replication licensing and DNA replication of sperm DNA in Xenopus egg extract (Cdt1 of the extract), increasing concentrations of the dimer (Cdt1 (115-353) [2]): 50 nM
Kd (Cdt1 (115-353) [3]): 3.5 nM
B1: tGeminin-tGeminin homodimer (complex)
chain: TQESFDLMIKENPSSQYWKEVAEKRRKALYEALKENEKLHKEIEQKDNEIARLKKENKELAEVAEHVQYMAELIERLNG

Kd (Cdt1 (115-353) [5]): ~35 nM
dH less favourable than for tGeminin-tGeminin binding to Cdt1 (Cdt1 (115-353) [5]): 21.1 kcal/mol
IC50 of inhibition of replication licensing and DNA replication of sperm DNA in Xenopus egg extract (Cdt1 of the extract), increasing concentrations of the dimer (Cdt1 (115-353) [6]): ~720 nM
B3: tIdas-tGeminin heterodimer (complex)
chain 1: PDVPPPEQYWKEVADQNQRALGDALVENNQLHVTLTQKQEEIASLKERNVQLKELASRTRHLASVLDKLMITQ
chain 2: TQESFDLMIKENPSSQYWKEVAEKRRKALYEALKENEKLHKEIEQKDNEIARLKKENKELAEVAEHVQYMAELIERLNG
notes: Idas (Multicilin), residues 173-245; Geminin, human, residues 82-160; Preformed heterodimer; also called tGeminin-tIdas; Idas-Geminin heterodimer; source: co-expression in Escherichia coli, purified (IMAC by the His tag on Idas, size exclusion chromatography); copies: 1 + 1
